Laboratory results reported in paper PMC4334968.

Tests used:
[1] = target: human retromer trimer assembled from Vps26, Vps29 and GST-tagged Vps35, Q96QK1;Q9UBQ0;O75436; test: pull-down on immobilized purified retromer trimer, anti-His immunoblot quantified; conditions: read off a plot
[2] = target: endogenous retromer (Vps26, Vps29, Vps35) (human (endogenous in HeLa and HaCaT)) (UniProt Q96QK1); test: proximity ligation

Substance	ratio to parent ([1]; 5 µM MBP-L2, parent: est. 0.18)	ratio to parent ([1]; 10 µM MBP-L2, parent: est. 1.0)	percent decrease of the PLA signal against wild-type PsV at eight hours [2] [%]
Maltose binding protein (MBP)-L2-6His fusion protein, wild-type HPV16 L2 amino acids 434-457 F446A; Y447A; L448A	0.2	0.28	
Maltose binding protein (MBP)-L2-6His fusion protein, wild-type HPV16 L2 amino acids 434-457 F446A; Y447A; L448A; Y452A; Y453A; M454A; L455A	0.17	0.21	
HPV16 L2 double mutant (FYL/AAA and YYML/AAAA) with a carboxy-terminal 3xFLAG tag, in pseudovirus (from UniProt P03107 1-473) (natural protein)			70
Maltose binding protein (MBP)-L2-6His fusion protein, wild-type HPV16 L2 amino acids 434-457 Y452A; Y453A; M454A; L455A	0.29	0.38	
